Measured values as given in paper PMC3510444 (Molecular Cell, 2012).
Where no end group is shown, it is not given here.

B1: FITC-labeled NDP52 CLIR peptide (aa 128-141), I133W (peptide)
peptide: ENEEDWLVVTTQGE
modifications: also: FITC label (end not given here)
notes: NDP52, human, CLIR region, 14-mer, Ile133 replaced with Trp; also called CLIR^I133W
B2: FITC-labeled NDP52 CLIR peptide (aa 128-141), wild type (peptide)
peptide: ENEEDILVVTTQGE
modifications: also: FITC label (end not given here)
notes: NDP52, human, CLIR region, 14-mer; also called CLIR^WT

Molecular target: T1, LC3A, purified, for fluorescence anisotropy (human, UniProt Q9H492 1-121)
T1 construct: LC3A, human ATG8 ortholog; Construct limits and whether the tag was removed may stand in the Supplemental Experimental Procedures; source: E. coli (pETM30 vectors for biochemical experiments), purified
Test: fluorescence polarisation; fluorescence anisotropy, equilibrium; purified ATG8 orthologs serially diluted and mixed with equal volumes of 100 nM FITC-labeled NDP52 peptides; PheraStar plate reader
Conditions: both partners purified

Binder	Kd
B1	0.29 µM
B2	15.1 µM
